Laboratory results published in patent publication US6083914.

Assays:
[1] = target: platelets (human, fresh washed); test: competition: soluble peptide against divalent cation-independent adhesion of platelets to coated 45 kDa
[2] = target: platelets (human, fresh washed); test: competition: 300 uM soluble peptide against platelet adhesion to coated FN in the presence of Ca+2

ED50 [1]	fold reduction of apparent affinity against FN312-326 [1]	percent reduction of platelet adhesion to FN [2]	Binder
712 µM	10 fold		TAVTQTYGGNSN [FN312-323]
> 2000 µM			TAVTQTY [FN312-318]
68 µM		50%	TAVTQTYGGNSNGEP [FN312-326]
> 2000 µM			QTYGGNSNGEPSVLPFTY [FN316-333]
